Measured values taken from the supplement of paper PMC7877785.
± gives the uncertainty stated by the source.

Assay: self-splicing fitness, log relative to wild type (ln ratio); higher = more splicing; Tetrahymena group I intron in knt gene, E. coli kanamycin selection, DiMSum; sequences stand for … in CUCUCU…GGAGGGAAAAGUUAUCAGGCAUGCACCUGGUAGCUAGUCUUUAAACCAAUAGAUUGCAUCGGUUUAAAAGGCAAGACCGUCAAAUUGCGGGAAAGGGGUCAACAGCCGUUCAGUACCAAGUCUCAGGGGAAACUUUGAGAUGGCCUUGCAAAGGGUAUGGUAAUAAGCUGACGGACAUGGUCCUAACCACGCAGCCAAGUCCUAAGUCAACAGAUCUUCUGUUGAUAUGGAUGCAGUUCACAGACUAAAUGUCGGUCGGGGAAGAUGUAUUCUUCUCAUAAGAUAUAGUCGGACCUCUCCUUAAUGGGAGCUAGCGGAUGAAGUGAUGCAACACUGGAGCCGCUGGGAACUAAUUUGUAUGCGAAAGUAUAUUGAUUAGUUUUGGAGUACUCGUGGUCG
Method in brief: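 Colonies from six replicate transformations of E. coli BL21(DE3) were pooled and amplicon-sequenced on an Illumina HiSeq 2500. The library placed an intron with all eight P1ex-region nucleotides randomised inside the knt kanamycin-resistance gene on pET-22b(+), and cells grew overnight at 37°C or 30°C on LB agar with or without 25 μg/mL kanamycin (plus 100 μg/mL carbenicillin, 50 μM IPTG, 0.2% rhamnose). Fitness is the DiMSum error-weighted combination of wild-type-normalised replicate fold changes, kanamycin versus none.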

Row | Sequence | self-splicing fitness (ln) (30 °C) | self-splicing fitness (ln) (37 °C)
1 | UUCGAGCAAUAUUACGCGGG | -3.26 ± 0.43 | -2.07 ± 0.32
2 | UUCGAGCAAUAUUACGCUUU | -3.89 ± 0.26 | -2.56 ± 0.21
3 | UUCGAGCAAUAUUACGGUGA | -1.33 ± 0.1 | -0.708 ± 0.11
4 | UUCGAGCAAUAUUACGGUGC | -3.24 ± 0.31 | -2.29 ± 0.29
5 | UUCGAGCAAUAUUACGUAUU |  | -2.79 ± 0.43
6 | UUCGAGCAAUAUUACGUCCG | -3.05 ± 0.24 | -1.24 ± 0.28
7 | UUCGAGCAAUAUUACGUCGA |  | -1.49 ± 0.19
8 | UUCGAGCAAUAUUACGUGAU | -1.8 ± 0.2 | -1.35 ± 0.21
9 | UUCGAGCAAUAUUACGUGCU | -2.02 ± 0.18 | 
10 | UUCGAGCAAUAUUACGUGUC | -3.11 ± 0.23 | -2.77 ± 0.34
11 | UUCGAGCAAUAUUACGUUAA | -2.16 ± 0.31 | -1.82 ± 0.21
12 | UUCUAGCAAUAUUACGAAAU | -2.85 ± 0.28 | -1.75 ± 0.32
13 | UUCUAGCAAUAUUACGACAC | -2.05 ± 0.27 | -1.71 ± 0.28
14 | UUCUAGCAAUAUUACGAGAG | -2.3 ± 0.22 | -2.4 ± 0.29
15 | UUCUAGCAAUAUUACGAGGU | -3.27 ± 0.31 | -1.53 ± 0.2
16 | UUCUAGCAAUAUUACGAUCC |  | -2.65 ± 0.38
17 | UUCUAGCAAUAUUACGCAAA | -0.225 ± 0.3 | -1.23 ± 0.27
18 | UUCUAGCAAUAUUACGCACG | -1.26 ± 0.26 | -0.399 ± 0.3
19 | UUCUAGCAAUAUUACGCCAC |  | -2.02 ± 0.46
20 | UUCUAGCAAUAUUACGCCAU | -2.66 ± 0.32 | 
21 | UUCUAGCAAUAUUACGCCCA | -1.55 ± 0.16 | -1.37 ± 0.14

Row | Sequence | self-splicing fitness (ln) (30 °C) | self-splicing fitness (ln) (37 °C)
22 | UUCUAGCAAUAUUACGCCCU | -2.51 ± 0.27 | -0.693 ± 0.19
23 | UUCUAGCAAUAUUACGCGGA | -3.93 ± 0.3 | -3.75 ± 0.33
24 | UUCUAGCAAUAUUACGGGCU | -3.73 ± 0.36 | -3.76 ± 0.36
25 | UUCUAGCAAUAUUACGGGGG | -3.75 ± 0.37 | -2.09 ± 0.22
26 | UUCUAGCAAUAUUACGGGGU | -3.67 ± 0.33 | -1.92 ± 0.24
27 | UUCUAGCAAUAUUACGGUAA | -1.17 ± 0.13 | -0.408 ± 0.085
28 | UUCUAGCAAUAUUACGGUAU |  | -0.561 ± 0.24
29 | UUCUAGCAAUAUUACGGUCA | -0.883 ± 0.15 | -0.729 ± 0.11
30 | UUCUAGCAAUAUUACGUAAG | -2.51 ± 0.15 | -0.938 ± 0.15
31 | UUCUAGCAAUAUUACGUAGC |  | -2.19 ± 0.31
32 | UUCUAGCAAUAUUACGUCAA | -1.21 ± 0.13 | -1.43 ± 0.16
33 | UUCUAGCAAUAUUACGUGCA | -1.23 ± 0.13 | -1.59 ± 0.16
34 | UUCUAGCAAUAUUACGUGGG | -3.08 ± 0.16 | -2.39 ± 0.15
35 | UUCUAGCAAUAUUACGUUUU | -3.83 ± 0.23 | -2.92 ± 0.18
36 | UUGAAGCAAUAUUACGAAAG | -1.47 ± 0.082 | -0.794 ± 0.1
37 | UUGAAGCAAUAUUACGAACC | -1.68 ± 0.24 | -1.77 ± 0.44
38 | UUGAAGCAAUAUUACGAACG | 0.338 ± 0.093 | 0.443 ± 0.12
39 | UUGAAGCAAUAUUACGACAC | -1.07 ± 0.13 | -0.278 ± 0.2
40 | UUGAAGCAAUAUUACGACGU | 0.216 ± 0.046 | 0.439 ± 0.06
41 | UUGAAGCAAUAUUACGAGCC | -2.69 ± 0.48 | -1.56 ± 0.49
